Results on one substance are retold here after PMC2115935.

For this test, the target named is integral membrane proteins of stripped rat liver cell membranes (rat (endogenous in liver)). Put plainly: co-sedimentation.

One may read the Kd as the concentration at which binding is half-saturated. Low readings indicate higher affinity, high ones lower affinity.

“Actin, isolated from rabbit skeletal muscle, 125I-labeled (from UniProt P68135 1-377) (natural protein)” yielded a Kd of 1.6 µM.
